From patent publication US20030176674A1 (Human Genome Sciences, published 2003) come the findings set out here.

The assay addresses T1, secreted form of VEGF-2 polypeptide (human vascular endothelial growth factor 2) (human, UniProt P49767 112-227, limits assumed).
T1 construct: also called secreted VEGF-2 protein
T1 sequence: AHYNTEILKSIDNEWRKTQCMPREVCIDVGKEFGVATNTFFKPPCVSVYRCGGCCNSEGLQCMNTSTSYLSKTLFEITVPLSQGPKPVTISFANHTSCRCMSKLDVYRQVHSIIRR
Nature of the assay: BIAcore (SPR), CM5 chip; antibody captured by goat anti-human Fc; secreted VEGF-2 injected at 2.9-95.2 nM; double reference subtraction. The method, then: A high-density CM5 BIAcore sensor chip was prepared using 10 ug/mL of purified goat anti-human fc antibody as the capture reagent. The optimal pH for immobilization was pH 4 (10 mM sodium acetate). An EDC/NHS complex was applied first to activate the carboxyl groups on the sensor matrix. After the VEGF-2 antibodies were immobilized, the esters were inactivated with ethanolamine. Both a control and an experimental flow cell were used.
The kinetics cycle was performed with the following procedures. The flow rate for the entire binding cycle was 25 uL/minute. The purified VEGF-2 antibody, at 5 ug/mL, was injected only in the experimental flow cell for 1 minute. The secreted form of VEGF-2 was then injected into control and experimental flow cells. The concentration the secreted form of VEGF-2 polypeptide varied for each cycle. The secreted form of VEGF-2 polypeptide (calculated as a 21 kDa dimer) was diluted in HBS-EP from 2 ug/mL (95.2 nM) to-0.06 ug/mL (2.9 nM). Both association and dissociation was 7 minutes. Regeneration was performed using 8 uL of 25 mM HCl for all flow cells.
Evaluation was performed using the double reference subtraction, which subtracts the control flow cell from the experimental and also subtracts a buffer injection.
In general terms: SPR reads the build-up and loss of mass on a sensor chip optically.

Substitutions are numbered along the chain they refer to.

B1: antibody 1.2.3 (antibody expressed by hybridoma cell line 1.2.3, ATCC Deposit Number PTA-3342) (antibody, human IgG2, V domains shown)
VH: QVQLVESGGGVVQPGRSLRLSCAASGFTFSRYGMHWVRQAPGKGLEWVALIWYDGSNKYYADSVKGRFTISRDNSKNTLYLQMNSLRAEDTAVYYCARDGFGSGCFDYWGQGTLVTVSS
VL: DIVMTQTPLSLSVTPGQPASISCKSSQSLLHSDGKTYLYWHLQKPGQPPQLLIYEVSHRFSGVPDRFSGSGSGTDFTLKISRVEAEDVGLYYCVQSIQLPLTFGGGTKVEIKR
notes: Purified hybridoma antibody from XenoMouse; also called Hybridoma 1.2.3
Molecule B1 had a dissociation constant (Kd) of 0.321 nM, a koff of 9.49e-05 s⁻¹ and a kon of 295000 M⁻¹ s⁻¹.

B2: antibody 1.5.1 (antibody expressed by hybridoma cell line 1.5.1, ATCC Deposit Number PTA-3341) (antibody, V domains shown)
VH: QVQLVESGGGVVQPGRSLRLSCAASGFTFSRYGMHWVRQAPGKGLEWVAIIWYDGSDKYYADSVKGRFTISRDNSKNTLYLQMSSLRAEDTAVYYCARGTVGASFDYWGQGTLVTVSS
VL: B1 VL with H31N, H41Y, Y54N, H58N, L90V, V94L
notes: Purified hybridoma antibody from XenoMouse; VAX1510 is the IgG1 conversion of 1.5.1; also called Hybridoma 1.5.1
As for B2, the affinity, expressed as Kd, was 1.79 nM; the koff came out at 0.000657 s⁻¹; the kon stood at 367000 M⁻¹ s⁻¹.

What is called Kd is the constant that tells how readily two partners part at equilibrium. A higher Kd goes with lower affinity. The term koff denotes the first-order rate constant of dissociation. Higher therefore signals fast dissociation. What is called kon is the second-order rate constant of association. A lower kon goes with slower complex formation.
